The target in assay [1] is SARS-CoV-2 Omicron BA.5 RBD (Omicron_BA.5_RBD-AviHis) (SARS-CoV-2 (Omicron BA.5 variant)). The assay is described as follows: BLI, biotinylated RBD, mass transport model fit.
Assay [2] addresses SARS-CoV-2 Omicron BA.1 RBD (Omicron_BA.1_RBD-AviHis) (SARS-CoV-2 (Omicron BA.1 variant)). The assay is described as follows: BLI, biotinylated RBD, mass transport model fit.
Assay [3] has as its target SARS-CoV-2 Omicron BA.2.75 RBD (Omicron_BA.2.75_RBD-AviHis) (SARS-CoV-2 (Omicron BA.2.75 variant)). The assay is described as follows: BLI, biotinylated RBD, mass transport model fit.
Assay [4] deals with T1, SARS-CoV-2 Delta RBD (Delta_RBD-Avi-His) (SARS-CoV-2 (Delta variant)). The experiment in a line: BLI, biotinylated RBD.
The target in assay [5] is SARS-CoV-2 Delta variant spike protein (SARS-CoV-2 (Delta variant)). The assay is described as follows: cell-based or functional assay.
Assay [6] concerns the target SARS-CoV-2 Omicron BA.1 variant spike protein (SARS-CoV-2 (Omicron BA.1 variant)). The assay is described as follows: cell-based or functional assay.
For assay [7], the target named is T1, SARS-CoV-2 Delta RBD (Delta_RBD-Avi-His). The assay is described as follows: BLI, biotinylated RBD, mass transport model fit.

The values that follow come from patent EP4375293A1 (Max-Planck-Gesellschaft zur Förderung der Wissenschaften …, dated 2024).

B1: Ma16B06 (VHH)
VHH: QVQLVESGGGLVRTGGSLRLSCAASGSILQIWAMKWYRQAPGLQREWIATIPNSGEPFYASSVEGRFTGSRENEETVYLYLNNLEPEDTAVYYCEVNEGVPVREYWGQGTQVTVSS
notes: Monomeric VHH; also called VHH Ma16B06
As for B1, the Kd in assay [1] stood at 20000 pM; in assay [2], 40 pM; in assay [3], 60 pM. For the same molecule, the binding result in assay [4] was “no binding”. Also, the “Lowest virus neutralizing concentration (pM; IC99)” value in assay [5] was above 5000 pM; in assay [6], 50 pM.

B2: Ma28H11 (VHH)
VHH: QVQLVESGGGLVQPGGSLRLSCATSGLTLDHYAIGWFLQAPGKEREGVACVSDDERSLYAPSVMGRFSISRDNAKKTFYLEMNSLKPEDTGVYYCASGPVVPGTLCRIPTVLGYDDWGQGTQVTVSS
notes: Monomeric VHH; also called M28H11
For B2, the Kd was 300 pM in assay [1], 30 pM in assay [7], 30000 pM in assay [2] and 600 pM in assay [3]. Besides, the “Lowest virus neutralizing concentration (pM; IC99)” value in assay [5] is 50 pM; in assay [6] it was above 5000 pM.

B3: Ma28D01 (VHH)
VHH: QVQLVESGGGLVQPGGSLRLSCVVSELGLDYYQIGWFRQAPGKEREGVSCFRSSDEIRYYADSVKGRFTTFRDNAGTTVYLQMNSLKPEDTGVYYCAVAPQTYYHGTWYGECAAAGMDSWGKGTQVTVSS
notes: Monomeric VHH
Take B3: the Kd in assay [1] was found to be 30 pM; in assay [7], 15 pM; in assay [2], 200 pM; in assay [3], 300 pM. Moreover, in assay [6], the “Lowest virus neutralizing concentration (pM; IC99)” value was 1700 pM.

B4: Ma28F04 (VHH)
VHH: QVQLVESGGGLVQPGGSLRLSCVVSDLGLDYYQIGWFRQAPGKEREGVSCFRSSDEIRYYADPVKGRFTTFRDNAGTTVYLQMNSLKPEDTGVYYCAVAPQTYYHGTWYGECAAAGMDSWGKGTLVTVSS
notes: Monomeric VHH
On to B4, for which the Kd in assay [1] was determined as 30 pM; in assay [7], 30 pM; in assay [2], 150 pM; in assay [3], 200 pM. The “Lowest virus neutralizing concentration (pM; IC99)” value in assay [5] and in assay [6] was 500 pM in each case.
